Laboratory results reported in CN116615457A (ICONOSCO S A, dated 2023).
One block for each binder: values may come before it.

Key:
[1] = biological target: T1, 重组人IL-1RAP-ECD(S21-E359)-avi-his蛋白 (human, UniProt Q9NPH3 21-359, biotinylated in the BLI binning assay); experiment: SPR; IgG1 LALA captured on anti-human IgG Fc chip, human IL-1RAP-avi-his as analyte
T1 construct: also called 人IL-1RAP-ECD-Avi-His; 重组人IL-1RAP-avi-his蛋白
T1 sequence: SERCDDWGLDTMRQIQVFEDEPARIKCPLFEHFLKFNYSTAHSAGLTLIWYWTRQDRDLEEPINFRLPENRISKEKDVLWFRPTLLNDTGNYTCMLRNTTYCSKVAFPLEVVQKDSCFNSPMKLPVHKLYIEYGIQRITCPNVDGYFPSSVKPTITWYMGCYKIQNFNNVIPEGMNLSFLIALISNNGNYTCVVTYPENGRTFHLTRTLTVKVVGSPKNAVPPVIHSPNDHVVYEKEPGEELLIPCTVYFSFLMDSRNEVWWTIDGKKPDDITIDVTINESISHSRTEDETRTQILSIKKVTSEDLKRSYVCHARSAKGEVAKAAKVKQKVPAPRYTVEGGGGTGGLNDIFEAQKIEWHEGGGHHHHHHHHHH

[2] = biological target: T2, 重组食蟹猴IL-1RAP-ECD(S21-E359)-avi-his蛋白 (cynomolgus monkey, UniProt P59822 21-359 (rhesus entry), biotinylated in the Fab SPR assay); experiment: SPR; IgG1 LALA captured on anti-human IgG Fc chip, cynomolgus IL-1RAP-avi-his as analyte
T2 construct: also called 食蟹猴IL-1RAP-ECD-Avi-His; 重组食蟹猴IL-1RAP-avi-his蛋白
T2 sequence: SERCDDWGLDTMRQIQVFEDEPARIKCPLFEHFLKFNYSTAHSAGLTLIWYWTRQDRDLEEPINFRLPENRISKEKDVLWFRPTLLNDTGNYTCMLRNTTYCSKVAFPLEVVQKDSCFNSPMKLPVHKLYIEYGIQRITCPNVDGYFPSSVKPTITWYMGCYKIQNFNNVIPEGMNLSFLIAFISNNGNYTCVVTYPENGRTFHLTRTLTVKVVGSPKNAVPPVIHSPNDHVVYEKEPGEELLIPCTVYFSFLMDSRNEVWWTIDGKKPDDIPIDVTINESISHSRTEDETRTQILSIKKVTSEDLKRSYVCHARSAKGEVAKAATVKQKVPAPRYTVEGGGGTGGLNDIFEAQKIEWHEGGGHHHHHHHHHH

[3] = biological target: T3, 膜结合的小鼠IL-1RAP (NIH-3T3细胞) (mouse, UniProt Q61730 21-570); experiment: flow cytometry (Fig. 11 legend)
T3 construct: whole, on cells; also called mouse IL-1RAP on NIH-3T3 cells
T3 sequence (looked up): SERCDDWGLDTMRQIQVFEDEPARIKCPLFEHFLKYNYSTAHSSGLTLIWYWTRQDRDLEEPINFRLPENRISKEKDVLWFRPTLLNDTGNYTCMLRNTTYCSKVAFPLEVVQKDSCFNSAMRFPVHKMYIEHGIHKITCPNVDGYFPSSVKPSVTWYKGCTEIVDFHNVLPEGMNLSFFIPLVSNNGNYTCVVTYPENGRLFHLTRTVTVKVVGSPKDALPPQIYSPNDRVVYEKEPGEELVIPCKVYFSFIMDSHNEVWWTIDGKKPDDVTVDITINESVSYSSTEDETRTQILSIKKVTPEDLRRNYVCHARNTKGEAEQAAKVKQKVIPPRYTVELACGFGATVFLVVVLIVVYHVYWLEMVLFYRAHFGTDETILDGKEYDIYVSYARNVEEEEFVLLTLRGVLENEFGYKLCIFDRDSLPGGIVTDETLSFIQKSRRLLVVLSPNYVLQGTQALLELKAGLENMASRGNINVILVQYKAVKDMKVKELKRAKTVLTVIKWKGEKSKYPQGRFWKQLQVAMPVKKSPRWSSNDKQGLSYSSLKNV

[4] = biological target: T2, 重组食蟹猴IL-1RAP-ECD(S21-E359)-avi-his蛋白; experiment: SPR; KD on cynomolgus IL-1RAP against KD on human IL-1RAP

- binding result [1]: binds
- binding result [2]: binds
B1: 抗IL-1RAP-C8-RecC IgG1 LALA (antibody, V domains shown)
VH: QVQLVQSGAEVKKPGSSVKVSCKASGSPAEPYAIQWVRQAPGQGLEWMGYIIPSLGGYDYAQKFQGRVTITADESTSTAYMELSSLRSEDTAVYYCARGQTLYDSGRQFDIWGQGTLVTVSS
VL: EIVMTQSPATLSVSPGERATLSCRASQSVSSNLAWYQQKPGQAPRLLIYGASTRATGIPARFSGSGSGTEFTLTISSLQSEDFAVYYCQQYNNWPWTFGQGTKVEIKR
notes: Human IgG1 LALA format; also called 亲本克隆抗IL-1RAP-C8-RecC; anti-IL-1RAP-C8-RecC IgG1 LALA

- binding result [3]: binds
B2: 抗IL-1RAP-C3-A3-mmIgG2a-LALA (antibody, V domains shown)
VH: EVQLLESGGGLVQPGGSLRLSCAASGFIFSHYGMSWVRQAPGKGLEWVSAISYDGEGTLYADSVKGRFTISRDNSKNTLYLQMNSLRAEDTAVYYCARFRYYTAFDYWGQGTLVTVSS
VL: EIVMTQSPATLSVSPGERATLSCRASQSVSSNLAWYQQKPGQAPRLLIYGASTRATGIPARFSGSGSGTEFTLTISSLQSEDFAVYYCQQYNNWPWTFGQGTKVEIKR
notes: Mouse IgG2a LALA; also called 抗IL-1RAP-C3-A3小鼠IgG2a LALA; 抗IL-1RAP-C3-A3克隆

- fold lower affinity than for human IL-1RAP [4]: ~40 fold
B3: 抗IL-1RAP-UCP02-C3 Fab (Fab, V domains shown)
VH: EVQLLESGGGLVQPGGSLRLSCAASGFTFRDYAMGWVRQAPGKGLEWVSAISYDGEGTLYADSVKGRFTISRDNSKNTLYLQMNSLRAEDTAVYYCARFRYYTAFDYWGQGTLVTVSS
VL: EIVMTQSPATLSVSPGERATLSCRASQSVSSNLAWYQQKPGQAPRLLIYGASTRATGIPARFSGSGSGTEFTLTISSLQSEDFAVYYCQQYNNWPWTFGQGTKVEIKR
notes: also called 抗IL-1RAP-C3; 抗IL-1RAP-C3 Fab
